This assay concerns the target glutathione S-transferase (GST) fused to the C-terminus of SERT. Description: GST pull-down, immunoblot densitometry. The note with it: whole-cell lysates of transfected HEK-293 cells; n = 3; parent: est. 3.1; read off a plot. Background: Immunoblotting shows a protein as a band on a membrane.

Turning to “YFP-tagged human MAD2, wild type (from UniProt Q13257) R133A”, the response stood at 2.1 a.u.

(Values after PMC10561363.)
